For 15 molecules, EC50 and IC50 results are on record in US20240116985A1 (published 2024).

B1: I-180 (peptide)
peptide: XDIXDEAAFQXFWQ
modifications: not fully specified; N-terminal acetyl (Ac); PL3 at 1, B5 at 4, S8 at 11 (staples PL3-B5 and B5-S8 by olefin metathesis); C-terminal amide (NH2)
notes: also called Ac-PL3-Asp-Ile-B5-Asp-Glu-Ala-Ala-Phe-Gln-S8-Phe-Trp-Gln-NH2
B2: I-144 (peptide)
peptide: Ac-[αAllylPro]DA[B5(4)]DEAAFV[S8]F[Bta]Q-NH2
modifications: staple 1-4, 4-11
notes: also called Ac-PL3-Asp-Ala-B5-Asp-Glu-Ala-Ala-Phe-Val-S8-Phe-BztA-Gln-NH2
B3: I-166 (peptide)
peptide: Ac-[αAllylPro]DA[B5(16)]DEAAFV[S8]F[Trp(7-F)]Q-NH2
modifications: staple 1-4, 4-11
notes: also called Ac-PL3-Asp-Ala-B5-Asp-Glu-Ala-Ala-Phe-Val-S8-Phe-7FW-Gln-NH2
B4: I-172 (peptide)
peptide: Ac-[αAllylPro]DA[B5(4)]D[EtGA]AAFV[S8]FWQ-NH2
modifications: staple 1-4, 4-11; not fully specified
notes: also called Ac-PL3-Asp-Ala-B5-Asp-EtGA-Ala-Ala-Phe-Val-S8-Phe-Trp-Gln-NH2
B5: I-176 (peptide)
peptide: Ac-[αAllylPro]DI[B5(5)]DEAAFV[S8]FWH-NH2
modifications: staple 1-4, 4-11
notes: also called Ac-PL3-Asp-Ile-B5-Asp-Glu-Ala-Ala-Phe-Val-S8-Phe-Trp-His-NH2
B6: I-154 (peptide)
peptide: ADIXDEAAFAXFWA
modifications: not fully specified; N-terminal acetyl (Ac); RdN at 4 and S7 at 11 (staple RdN-S7 by olefin metathesis); C-terminal amide (NH2)
notes: also called Ac-Ala-Asp-Ile-RdN-Asp-Glu-Ala-Ala-Phe-Ala-S7-Phe-Trp-Ala-NH2
B7: I-153 (peptide)
peptide: Ac-ADI[RdN(3)]DEAAFQ[S7]FWA-NH2
modifications: staple 4-11
notes: also called Ac-Ala-Asp-Ile-RdN-Asp-Glu-Ala-Ala-Phe-Gln-S7-Phe-Trp-Ala-NH2
B8: I-152 (peptide)
peptide: Ac-ADI[RdN″]DEAAFA[S7]FWH-NH2
modifications: staple 4-11
notes: also called Ac-Ala-Asp-Ile-RdN-Asp-Glu-Ala-Ala-Phe-Ala-S7-Phe-Trp-His-NH2
B9: I-147 (peptide)
peptide: Ac-[Aib]DI[RdN]DEAAFQ[S7]FW-NH2
modifications: staple 4-11
notes: also called Ac-Aib-Asp-Ile-RdN-Asp-Glu-Ala-Ala-Phe-Gln-S7-Phe-Trp-NH2

Starred links: 1 amine or outer side, 2 acyl side, 3 side chain; linkers in the order of their positions; H or OH if unused. Positions of bridges follow the written chain, without caps; N, C: chain ends. Non-standard residues stand in square brackets, D forms with d. Primed or numbered codes have the meaning given here. RdN(3) = (R)-4-(((allyloxy)carbonyl)(methyl)amino)-2-amino-2-methylbutanoic acid, stapling residue, C=CCOC(=O)N(C)CC[C@@](C)(N[*:1])C(=O)[*:2]; RdN″ = (R)-4-(((allyloxy)carbonyl)(methyl)amino)-2-amino-2-methylbutanoic acid (stapling residue), C=CCOC(=O)N(C)CC[C@@](C)(N[*:1])C(=O)[*:2]; B5(16) = 2-amino-2-(pent-4-en-1-yl)hept-6-enoic acid = 2,2-bis(4-pentenyl)glycine (stitching residue), C=CCCCC(CCCC=C)(N[*:1])C(=O)[*:2]; B5(4) = 2,2-bis(4-pentenyl)glycine = 2-amino-2-(pent-4-en-1-yl)hept-6-enoic acid (stitching residue), C=CCCCC(CCCC=C)(N[*:1])C(=O)[*:2]; B5(5) = 2,2-bis(4-pentenyl)glycine, 2-amino-2-(pent-4-en-1-yl)hept-6-enoic acid (stitching residue), C=CCCCC(CCCC=C)(N[*:1])C(=O)[*:2]; RdN = (R)-4-(((allyloxy)carbonyl)(methyl)amino)-2-amino-2-methylbutanoic acid, C=CCOC(=O)N(C)CC[C@@](C)(N[*:1])C(=O)[*:2]; EtGA = (S)-2-amino-3-((carboxymethyl)(ethyl)amino)propanoic acid, CCN(CC(=O)[*:3])C[C@H](N[*:1])C(=O)[*:2]; B5″ = 2,2-bis(4-pentenyl)glycine, stitching residue, C=CCCCC(CCCC=C)(N[*:1])C(=O)[*:2]; B5(28) = 2,2-bis(4-pentenyl)glycine, C=CCCCC(CCCC=C)(N[*:1])C(=O)[*:2]; Trp(7-F) = N[C@@H](Cc1c[nH]c2c(F)cccc12)C(=O)O; S7 = C[C@@](CCCCCC=[*:3])(N[*:1])C(=O)[*:2]; Bta = N[C@@H](Cc1csc2ccccc12)C(=O)O; αAllylPro = C=CC[C@@]1(C(=O)O)CCCN1; S8 = C=CCCCCCC[C@](C)(N)C(=O)O; NMeS = CN[C@@H](CO)C(=O)O; Aib = CC(C)(N)C(=O)O

For the first assay, the target named is T1, full-length beta-Catenin (Uniprot ID P35222) (Homo sapiens (Human), UniProt P35222 2-781).
T1 construct: Also used here for the endogenous beta-catenin of the DLD1 TCF reporter cells; also called bCat; B-Catenin
T1 sequence: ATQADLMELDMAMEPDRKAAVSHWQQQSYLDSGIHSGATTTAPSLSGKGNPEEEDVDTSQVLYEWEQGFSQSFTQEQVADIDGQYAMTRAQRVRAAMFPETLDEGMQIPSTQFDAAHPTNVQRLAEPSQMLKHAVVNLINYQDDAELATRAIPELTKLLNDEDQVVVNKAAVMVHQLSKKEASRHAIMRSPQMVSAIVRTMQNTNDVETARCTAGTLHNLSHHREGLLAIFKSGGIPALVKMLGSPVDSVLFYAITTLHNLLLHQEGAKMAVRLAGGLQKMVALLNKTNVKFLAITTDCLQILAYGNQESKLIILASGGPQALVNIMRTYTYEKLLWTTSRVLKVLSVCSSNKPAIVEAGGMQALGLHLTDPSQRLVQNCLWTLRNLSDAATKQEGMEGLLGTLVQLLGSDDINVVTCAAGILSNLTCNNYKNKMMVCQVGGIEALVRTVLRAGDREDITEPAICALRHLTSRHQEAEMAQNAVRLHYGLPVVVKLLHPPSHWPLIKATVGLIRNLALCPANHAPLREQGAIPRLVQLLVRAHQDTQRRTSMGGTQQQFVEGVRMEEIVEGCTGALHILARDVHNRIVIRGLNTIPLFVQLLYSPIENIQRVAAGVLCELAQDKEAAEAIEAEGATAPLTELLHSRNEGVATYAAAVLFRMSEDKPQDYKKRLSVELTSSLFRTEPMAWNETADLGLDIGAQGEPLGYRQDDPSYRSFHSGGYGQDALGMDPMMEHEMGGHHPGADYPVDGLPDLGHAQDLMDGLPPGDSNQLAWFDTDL
The experiment in a line: fluorescence polarization competition; full-length beta-catenin, competitor 5FAM-TCF4(10-53) probe. The procedure, abridged: (§1)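 Readings followed a light-protected 60-minute incubation at 20° C. Each read was done in duplicate. Curves were fit with a 1:1 binding model including hill slope, and stated concentrations are final.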
For orientation: Fluorescence polarisation rises when a labelled molecule tumbles more slowly, as on binding a larger partner.
As usually defined, the EC50 is the concentration at which the effect is half-maximal. Low readings indicate a more potent agent, high ones a less potent agent. Molecule Ac-[αAllylPro]DL[B5(4)]DEAAFN[S8]F[Bta][dN]-NH2 (staple 1-4, 4-11; also: earlier-eluting HPLC peak (staple isomer), Stapled peptide composition) [I-757] gave an EC50 of 64 nM. Regarding Ac-[αAllylPro]DL[B5(4)]DEAAFN[S8]F[Bta][dN]-NH2 (staple 1-4, 4-11; also: later-eluting HPLC peak (staple isomer), Stapled peptide composition) [I-758], a half-maximal response (EC50) required 47 nM. As to Ac-[αAllylPro]DL[B5(4)]DEAAFN[S8]F[Bta][dS]-NH2 (staple 1-4, 4-11, Stapled peptide composition) [I-756], the EC50 came out at 56 nM.

Consider Ac-[αAllylPro]DL[B5(28)]DEAAFN[S8]F[Bta]S-NH2 (staple 1-4, 4-11, Stapled peptide composition) [I-751], for which the concentration giving a half-maximal response (EC50) turned out to be 29 nM. As for Ac-[αAllylPro]DL[B5″]DEAAFN[S8]F[Bta][NMeS]-NH2 (staple 1-4, 4-11, Stapled peptide composition) [I-760], the 50% effective concentration (EC50) worked out at 608 nM. This EC50 lies about 21-fold higher than the previous one. Regarding Ac-[αAllylPro]DL[B5(4)]DEAAFN[S8]F[Bta][NMeS]-NH2 (staple 1-4, 4-11; also: earlier-eluting HPLC peak (staple isomer), Stapled peptide composition) [I-759], the EC50 was found to be 1530 nM.

The next assay deals with T2, full-length beta-Catenin (Uniprot ID P35222) (Homo sapiens (Human), UniProt P35222 1-781).
T2 construct: The assay protocol says 'full-length beta-Catenin (Uniprot ID P35222)'; also called bCat; B-Catenin
T2 sequence: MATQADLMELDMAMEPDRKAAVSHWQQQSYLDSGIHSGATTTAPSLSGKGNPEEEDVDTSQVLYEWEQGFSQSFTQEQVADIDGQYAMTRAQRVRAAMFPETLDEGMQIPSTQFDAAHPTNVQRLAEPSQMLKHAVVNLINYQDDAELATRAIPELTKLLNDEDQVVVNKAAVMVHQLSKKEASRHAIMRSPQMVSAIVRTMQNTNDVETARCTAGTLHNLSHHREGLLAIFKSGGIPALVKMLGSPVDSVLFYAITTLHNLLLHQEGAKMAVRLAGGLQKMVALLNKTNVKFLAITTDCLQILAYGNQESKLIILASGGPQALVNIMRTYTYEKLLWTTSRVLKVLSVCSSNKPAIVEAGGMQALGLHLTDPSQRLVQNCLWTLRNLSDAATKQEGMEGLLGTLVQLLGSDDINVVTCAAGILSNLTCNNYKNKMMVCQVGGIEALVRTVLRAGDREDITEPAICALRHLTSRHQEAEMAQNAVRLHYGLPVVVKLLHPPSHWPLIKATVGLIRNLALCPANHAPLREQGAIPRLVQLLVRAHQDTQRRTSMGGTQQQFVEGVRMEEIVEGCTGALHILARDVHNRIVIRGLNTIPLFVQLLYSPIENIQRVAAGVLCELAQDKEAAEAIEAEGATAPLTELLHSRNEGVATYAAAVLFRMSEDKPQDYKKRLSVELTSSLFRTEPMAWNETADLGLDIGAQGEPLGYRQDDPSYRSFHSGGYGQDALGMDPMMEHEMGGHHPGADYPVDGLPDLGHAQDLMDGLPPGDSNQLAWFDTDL
The description is as above. The procedure, abridged: as §1
Broadly, the IC50 is the midpoint of a concentration-inhibition curve. Consider B1, for which the half-inhibitory concentration (IC50) was 56 nM. The molecule B2 had a half-inhibitory concentration (IC50) of 146 nM.

In turn, B3 showed a 50% inhibitory concentration (IC50) of 2160 nM. On to B4, for which the IC50 amounted to 5000 nM. B5 displayed an IC50 of 1990 nM. This IC50 lies about 2.5-fold lower than the previous one. The same measure, in the same setting: with B6 the figure was 5000 nM; with B7, 2140 nM; with B8, 5000 nM. As for B9, the IC50 amounted to 1640 nM. This IC50 lies about 3-fold lower than the previous one.
